Patent US20260193348A1 (ANTENGENE BIOLOGICS, published 2026)
Changes are numbered by the printed parent chain. Numbers in names are those of the source.

B1: Bis-40E9-L2H3 (bispecific antibody, human IgG1, kappa, L234A L235A)
heavy 1: not shown
heavy 2: EVQLVQSGAEVKKPGASVKVSCKASGYTFTSYVIHWVRQAPGQGLEWMGYFNPYNDGTKYNEEFKGRVTLTSDKSTSTAYMELRSLRSDDTAVYYCARGGVRRYFDVWGQGTTVTVSSASTKGPSVFPLAPSSKSTSGGTAALGCLVKDYFPEPVTVSWNSGALTSGVHTFPAVLQSSGLYSLSSVVTVPSSSLGTQTYICNVNHKPSNTKVDKKVEPKSCGGGGSGGGGSEVQLVQSGAEVKKPGSSVKVSCKASGYTFSSYVIHWVRQAPGQCLEWMGYINPYNDVIKYNEKFKGRVTLTSDKSTSTAYMELSSLRSEDTAVYYCARDSYYSYDGFAYWGQGTLVTVSSGGGGSGGGGSGGGGSGGGGSEIVLTQSPDFQSVTPKEKVTITCSASSSVSYMHWYQQKPDQSPKRLIYDTSKLASGVPSRFSGSGSGTDFTLTINSLEAEDAATYYCQQWSSNPPTFGCGTKVEIKGGGGSGGGGSDKTHTCPPCPAPEAAGGPSVFLFPPKPKDTLMISRTPEVTCVVVDVSHEDPEVKFNWYVDGVEVHNAKTKPREEQYNSTYRVVSVLTVLHQDWLNGKEYKCKVSNKALPAPIEKTISKAKGQPREPQVCTLPPSREEMTKNQVSLSCAVKGFYPSDIAVEWESNGQPENNYKTTPPVLDSDGSFFLVSKLTVDKSRWQQGNVFSCSVMHEALHNHYTQKSLSLSPGK
light: DIQMTQSPSSLSASVGDRVTITCRASQDIGSNLNWLQQKPGKAIKRLIYATFGLDSGVPSRFSGSRSGTDFTLTISSLQPEDFATYYCQQYASFPYTFGGGTKVEIKRTVAAPSVFIFPPSDEQLKSGTASVVCLLNNFYPREAKVQWKVDNALQSGNSQESVTEQDSKDSTYSLSSTLTLSKADYEKHKVYACEVTHQGLSSPVTKSFNRGEC
B2: Bis-40E9-L2H3-Y101F.H (bispecific antibody)
heavy 1: not shown
heavy 2: B1 heavy 2 with Y332F
light: B1 light
notes: Fab-scFv-Fab format with LALA mutations
B3: Bis-40E9-L2H7 (bispecific antibody)
heavy 1: not shown
heavy 2: B1 heavy 2 with Y285G, D287G, Y333S
light: B1 light
notes: as for B2
B4: Bis-40E9-L2H11 (bispecific antibody)
heavy 1: not shown
heavy 2: B1 heavy 2 with D336R, G337A
light: B1 light
notes: Fab-scFv-Fab format with LALA mutations; copies: 1 + 1 + 2
B5: Bis-40E9-L2H14 (bispecific antibody)
heavy 1: not shown
heavy 2: B1 heavy 2 with D330E
light: B1 light
notes: as for B4
B6: Bis-40E9-L2H16 (bispecific antibody)
heavy 1: not shown
heavy 2: B1 heavy 2 with S262D
light: B1 light
notes: as for B4
B7: Bis-40E9-L2H3-N55S.H (bispecific antibody, human IgG1, kappa, L234A L235A)
heavy 1: not shown
heavy 2: B1 heavy 2 with N286S
light: B1 light
B8: Bis-40E9-L2H3 (bispecific antibody, human IgG1, kappa, L234A L235A)
heavy 1: not shown
heavy 2: B1 heavy 2
light: B1 light
notes: Fab-scFv-Fab, LALA; also called humanized 2+1 bispecific antibody with scFv 40E9-L2H3
B9: Bis-40E9-L2H1 (bispecific antibody)
heavy: EVQLVQSGAEVKKPGASVKVSCKASGYTFTSYVIHWVRQAPGQGLEWMGYFNPYNDGTKYNEEFKGRVTLTSDKSTSTAYMELRSLRSDDTAVYYCARGGVRRYFDVWGQGTTVTVSS
heavy (part 1 of 2): B9 heavy
heavy (part 2 of 2): GGGGSGGGGSEVQLVQSGAEVKKPGSSVKVSCKASGGTFSSYVIHWVRQAPGQCLEWMGYINPYNDVIKYNEKFKGRVTITADKSTSTAYMELSSLRSEDTAVYYCARDSYYSYDGFAYWGQGTLVTVSSGGGGSGGGGSGGGGSGGGGSEIVLTQSPDFQSVTPKEKVTITCSASSSVSYMHWYQQKPDQSPKRLIYDTSKLASGVPSRFSGSGSGTDFTLTINSLEAEDAATYYCQQWSSNPPTFGCGTKVEIKGGGGSGGGGS
light: DIQMTQSPSSLSASVGDRVTITCRASQDIGSNLNWLQQKPGKAIKRLIYATFGLDSGVPSRFSGSRSGTDFTLTISSLQPEDFATYYCQQYASFPYTFGGGTKVEIK
notes: Fab-scFv-Fab (2+1), LALA; not shown: CH1; CL; CH2-CH3 with L234A, L235A; heavy chain constant region with L234A, L235A

Molecular target: T1, GPRC5D on MM.1S cells (human, UniProt Q9NZD1 1-345)
T1 construct: whole, on cells; MM.1S is called a GPRC5D positive expressed cell line and human multiple myeloma cells; also called G-protein coupled receptor family C group 5 member D
Assay: FACS on MM.1S cells
Description: To evaluate the binding affinity of the generated chimeric bispecific antibody to T cells, the isolated CD3⁺ T cells were stained by antibodies and the binding affinity was determined by FACS analysis. The protocol of FACS analysis is described as follows: [0785] (a) CD3⁺ T cells were isolated from normal donors. [0786] (b) The isolated CD3⁺ T cells were washed by Staining Buffer (PBS+1% BSA) in round bottom 96-well plate. […] (c) Antibody dilutions were added to each well and mixed with the CD3+ T cells, incubated at 4 degrees for 1 hour. […] (d) Cells were spined at 300 g for 3 minutes, then the supernatants were discarded. [0789] (e) Cells were washed with Staining Buffer. [0790] (f) Step (d) was repeated, and the cells were incubated with secondary antibody in Staining Buffer for 0.5 hours at 4 degrees. [0791] (g) After incubation, step (d)-(e) were repeated. [0792] (h) Cells were resuspended in Staining Buffer and fluorescence signals were recorded by flow cytometry.
The binding affinities of the generated humanized Fab-scFv-Fab bispecific antibodies to MM.1S were evaluated by FACS analysis. The protocol for FACS analysis is identical to that described in Example 1.2, except that MM.1S were used in this example.

T1 sequence (Q9NZD1 whole entry): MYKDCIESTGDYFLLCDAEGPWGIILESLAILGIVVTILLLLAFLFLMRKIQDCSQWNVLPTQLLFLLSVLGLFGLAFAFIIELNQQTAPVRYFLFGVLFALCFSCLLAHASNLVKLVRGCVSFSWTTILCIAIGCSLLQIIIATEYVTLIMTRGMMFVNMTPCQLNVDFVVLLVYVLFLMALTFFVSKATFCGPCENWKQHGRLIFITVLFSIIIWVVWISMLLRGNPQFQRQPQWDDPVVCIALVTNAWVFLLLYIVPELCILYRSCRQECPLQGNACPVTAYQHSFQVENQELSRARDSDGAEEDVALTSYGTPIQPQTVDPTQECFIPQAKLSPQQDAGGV

Binder | Ratio of EC50 (relative to ATG-Bis-40E9) [ratio] | Ratio of Top MFI (relative to ATG-Bis-40E9) [ratio]
B1 | 1.19 | 0.997
B2 | 1.27 | 0.954
B3 | 2.5 | 1.25
B4 | 5.78 | 1.47
B5 | 1.02 | 0.975
B6 | 0.913 | 0.972

Molecular target: T2, CD3 on Jurkat cells (UniProt P07766 23-207; P04234 22-171; P09693 23-182)
T2 construct: whole, on cells; On the cell, CD3 stands in the TCR-CD3 complex; also called cluster of differentiation 3
Assay: FACS on Jurkat cells
Description: (§1) The binding affinities of the generated humanized Fab-scFv-Fab bispecific antibodies were determined by FACS analysis. […] (a) Jurkat cells were washed by Staining Buffer (PBS+1% BSA) in round bottom 96-well plate. [0833] (b) Antibody dilutions and cells were added to each well, incubated at 4 degrees for 1 hour. [0834] (c) Cells were spined down at 300 g for 3 minutes, and the supernatants were discarded. [0835] (d) Cells were washed with Staining Buffer. […] (e) Step (d) was repeated and the cells were incubated for 0.5 hours at 4 degrees with secondary antibody in Staining Buffer. [0837] (f) After incubation, step (d)-(e) were repeated. […] (g) Staining Buffer was added and fluorescence signals were recorded by flow cytometry.
The binding affinities of the generated humanized Fab-scFv-Fab bispecific antibodies were determined by FACS analysis. The protocol for FACS analysis is identical to that described in Example 3.2, except that different test antibodies were used.

T2 sequence (P07766 23-207, chain 1 of 3): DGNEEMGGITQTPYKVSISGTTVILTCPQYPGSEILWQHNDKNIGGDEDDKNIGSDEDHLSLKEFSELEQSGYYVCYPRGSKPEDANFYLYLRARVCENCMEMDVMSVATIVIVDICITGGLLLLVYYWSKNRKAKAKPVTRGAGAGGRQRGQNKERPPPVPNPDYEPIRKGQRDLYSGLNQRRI
T2 sequence (P04234 22-171, chain 2 of 3): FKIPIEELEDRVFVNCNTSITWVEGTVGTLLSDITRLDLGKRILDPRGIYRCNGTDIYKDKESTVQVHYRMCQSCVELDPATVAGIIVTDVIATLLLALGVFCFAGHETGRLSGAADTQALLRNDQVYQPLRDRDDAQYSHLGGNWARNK
T2 sequence (P09693 23-182, chain 3 of 3): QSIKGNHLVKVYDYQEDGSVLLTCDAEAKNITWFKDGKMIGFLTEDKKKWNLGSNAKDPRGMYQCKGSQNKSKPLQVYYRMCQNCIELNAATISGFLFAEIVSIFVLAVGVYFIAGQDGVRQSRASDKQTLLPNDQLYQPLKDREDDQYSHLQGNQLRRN

Binder | Ratio of EC50 (relative to ATG-Bis-40E9) [ratio] | Ratio of Top MFI (relative to ATG-Bis-40E9) [ratio]
B1 | 1.65 | 0.77
B7 | 167 | 
B2 | 13.6 | 
B3 | 1.24 | 0.68
B4 | 7.88 | 6.35
B5 | 2.31 | 0.83
B6 | 2.97 | 0.62

Molecular target: T3, GPRC5D (G-protein coupled receptor family C group 5 member D), human, on multiple myeloma cell lines (human, UniProt Q9NZD1 1-345)
Assay: cell-based or functional assay

T3 sequence (Q9NZD1 whole entry): as the sequence (Q9NZD1 whole entry) above

Binder | IC50 (nM), T-Cell Dependent Cytotoxicity, MM.1S [nM] | IC50 (nM), T-Cell Dependent Cytotoxicity, MOLP-8 [nM] | IC50 (nM), T-Cell Dependent Cytotoxicity, RPMI8226 [nM] | Top (%), T-Cell Dependent Cytotoxicity, MM.1S [%] | Top (%), T-Cell Dependent Cytotoxicity, MOLP-8 [%] | Top (%), T-Cell Dependent Cytotoxicity, RPMI8226 [%]
B8 | 0.00571 | 0.00166 | 0.06 | 66.8 | 71.9 | 11.5
B9 | 0.0437 | 0.0069 | 0.356 | 56.3 | 58.3 | 25.9

Molecular target: T3, GPRC5D (G-protein coupled receptor …)
Assay: cell-based or functional assay
Remark: another data set of the same source

Binder | EC50 (nM), luciferase assay, MM.1S [nM] | Top (RLU), luciferase assay, MM.1S [RLU] | Top (RLU), luciferase assay, MOLP-8 [RLU] | EC50 (nM), luciferase assay, L363 [nM] | EC50 (nM), luciferase assay, MOLP-8 [nM] | EC50 (nM), luciferase assay, RPMI8226 [nM] | Top (RLU), luciferase assay, L363 [RLU] | Top (RLU), luciferase assay, RPMI8226 [RLU]
B8 | 0.0898 | 1940 | 221 |  |  |  |  | 
B9 | 0.18 | 2510 | 1190 | 0.258 | 0.00654 | 1.05 | 898 | 261

Molecular target: T1, GPRC5D on MM.1S cells
Assay: cell-based or functional assay

Binder | Ratio of IC50 (relative to ATG-Bis-40E9), MM.1S cytotoxicity [ratio] | Ratio of Top cytotoxicity (relative to ATG-Bis-40E9), MM.1S cytotoxicity [ratio]
B1 | 0.23 | 1.04
B7 | 1.06 | 1
B2 | 1.94 | 1.03
B3 | 3.21 | 0.98
B4 | 13.7 | 1
B5 | 10.4 | 0.98
B6 | 4.93 | 0.98

Molecular target: T1, GPRC5D on MM.1S cells
Assay: cell-based or functional assay
Remark: another data set of the same source

Binder | Ratio of EC50 (relative to ATG-Bis-40E9), luciferase assay on MM.1S [ratio] | Ratio of Top RLU (relative to ATG-Bis-40E9), luciferase assay on MM.1S [ratio]
B1 | 3.25 | 1.09
B7 | 1.33 | 0.75
B2 | 4.89 | 1.57
B3 | 2.79 | 0.85
B4 | 26.2 | 1.24
B5 | 5.77 | 0.81
B6 | 6.02 | 0.84

Molecular target: T4, CD3 (Cluster of Differentiation 3 protein), human, on T cells / Jurkat cells (human, UniProt P07766 23-207; P04234 22-171; P09693 23-182)
T4 construct: whole, on cells; part of the TCR-CD3 complex; also called human CD3
Assay: FACS, Jurkat cells, antibody at 50 µg/ml
Description: as §1

T4 sequence (P07766 23-207, chain 1 of 3): as the sequence (P07766 23-207, chain 1 of 3) above
T4 sequence (P04234 22-171, chain 2 of 3): as the sequence (P04234 22-171, chain 2 of 3) above
T4 sequence (P09693 23-182, chain 3 of 3): as the sequence (P09693 23-182, chain 3 of 3) above

Binder | MFI (50 µg/ml) [MFI]
B8 | 341
B9 | 113
